{
  "source": "patent US20030224375A1",
  "about": "“Assays for evaluating the function of rna helicases” (priority 2002, published 2003)",
  "molecules": {"B1": {"name": "UvrD DNA helicase: DNA helicase cited for comparison of unwinding step size (Ali and Lohmann, 1997) (protein, UniProt P03018 1-720, looked up)", "DNA helicase II": "MDVSYLLDSLNDKQREAVAAPRSNLLVLAGAGSGKTRVLVHRIAWLMSVENCSPYSIMAVTFTNKAAAEMRHRIGQLMGTSQGGMWVGTFHGLAHRLLRAHHMDANLPQDFQILDSEDQLRLLKRLIKAMNLDEKQWPPRQAMWYINSQKDEGLRPHHIQSYGNPVEQTWQKVYQAYQEACDRAGLVDFAELLLRAHELWLNKPHILQHYRERFTNILVDEFQDTNNIQYAWIRLLAGDTGKVMIVGDDDQSIYGWRGAQVENIQRFLNDFPGAETIRLEQNYRSTSNILSAANALIENNNGRLGKKLWTDGADGEPISLYCAFNELDEARFVVNRIKTWQDNGGALAECAILYRSNAQSRVLEEALLQASMPYRIYGGMRFFERQEIKDALSYLRLIANRNDDAAFERVVNTPTRGIGDRTLDVVRQTSRDRQLTLWQACRELLQEKALAGRAASALQRFMELIDALAQETADMPLHVQTDRVIKDSGLRTMYEQEKGEKGQTRIENLEELVTATRQFSYNEEDEDLMPLQAFLSHAALEAGEGQADTWQDAVQLMTLHSAKGLEFPQVFIVGMEEGMFPSQMSLDEGGRLEEERRLAYVGVTRAMQKLTLTYAETRRLYGKEVYHRPSRFIGELPEECVEEVRLRATVSRPVSHQRMGTPMVENDSGYKLGQRVRHAKFGEGTIVNMEGSGEHSRLQVAFQGQGIKWLVAAYARLESV"}},
  "key": {"[1]": {"molecular_target": "NPH-II (DExH RNA helicase) (Vaccinia virus) (UniProt P12927)", "experiment": "EMSA"}, "[2]": {"molecular_target": "U1A (N-terminal RNP domain, residues 1-117) (UniProt P09012)", "experiment": "EMSA"}, "[3]": {"system": "RNA substrate containing the U1A binding site from the 3′-untranslated region (UTR) of U1A mRNA", "experiment": "U1A dissociation (off-rate) from RNA substrate, gel-shift with U1A trap", "experimental": "(§1) FIG. 3. Active displacement of U1A by NPH-II. Dissociation experiments were conducted with 1 nM RNA substrate and 10 nM U1A in a buffer of 40 mM Tris/HCl (pH 8.0), 4 mM MgCl2 at 23° C. (final volume, 40 μL)- Reactions were performed as described in FIG. 2, except that they were initiated by addition of ATP (3.5 mM final concentration) and U1A trap (200 nM final concentration (16)), as indicated. Aliquots (6 μL) were withdrawn at 0, 1, 4, 8, 12, and 20 minutes, mixed with 2 μL of 100 mM EDTA and 2.5 μM NPH-II trap (which serves to capture dissociated NPH-II (16)) in 30% glycerol. Each aliquot was then loaded immediately on a 8% native polyacrylamide gel, which was run at 4° C. at 10V/cm. Bands were visualized by PhosphorImager. U1A-bound and free RNA as well as unwound and duplex RNA species are indicated by the cartoons at left (D: bound U1A dimer, M: bound U1A monomer, F: U1A free duplex substrate, U: unwound substrate). A. Release of U1A upon addition of ATP (initiated by adding ATP together with U1A trap). B. Release of U1A upon addition of NPH-II without ATP (initiated by adding only U1A trap). C. Release of U1A in the presence of ATP and NPH-II (initiated by adding ATP together with U1A trap) D. Trapping control: U1A trap is added together with RNA substrate to assess trapping efficiency. Aliquots were removed and treated as described above. E-H. Same reactions as above, but with blunt-end control duplex.\nThe off-rate for U1A was measured by saturating the substrate with U1A and, after complex formation, adding a large excess of RNA that contains another high-affinity U1A binding site (15). This prevented U1A from re-binding the substrate once it detached and enabled us to monitor the rate of U1A release by gel-shift electrophoresis (FIG. 3)."}, "[4]": {"system": "RNA substrate containing the U1A binding site from the 3′-untranslated region (UTR) of U1A mRNA", "conditions": "previously shown; cited from earlier work"}, "[5]": {"system": "DNA", "conditions": "cited from earlier work"}, "[6]": {"molecular_target": "U1A (N-terminal RNP domain, residues 1-117) (UniProt P09012 P09012:1-117)", "experiment": "competition; used at 200 nM to trap dissociated U1A", "conditions": "chain copies: 2 (stated, dimer; monomer also seen); hairpin", "experimental": "as §1, with “MgCl₂” for “MgCl2”, “E-H. Same reactions as above, but with blunt-end control duplex.” left out"}},
  "data": [
    {"molecule": "36 bp duplex substrate LS36 with 3' overhang", "values": [
      {"measurement": "activity", "setting": "[1]; unwinding rate constant 3.5±0.2 independent of duplex length, Mg2+, 3.5 mM ATP", "result": 3.5, "unit": "min⁻¹"}
    ]},
    {"molecule": "83 bp duplex substrate LS83 with 3' overhang", "values": [
      {"measurement": "activity", "setting": "[1]; unwinding rate constant 3.5±0.2 independent of duplex length, lower amplitude with trap RNA, Mg2+, 3.5 mM ATP", "result": 3.5, "unit": "min⁻¹"}
    ]},
    {"molecule": "U1A 3'UTR binding site helicase substrate with 24-nt 3' overhang (AN22U-3')", "values": [
      {"measurement": "activity", "setting": "[1]; unwinding rate constant without U1A, 3.5 mM ATP, 4 mM MgCl2, pH 8.0, room temperature, with U1A k1 3.52 min-1", "result": 3.5, "unit": "min⁻¹"},
      {"measurement": "koff", "setting": "[2]; 40 mM Tris pH 8.0, 4 mM MgCl2, 23 C, U1A trap, no NPH-II, high affinity binding at 10 nM U1A", "result": 0.000167, "unit": "s⁻¹"}
    ]},
    {"molecule": "U1A: RNA-binding protein with N-terminal RNP domain, constituent of the spliceosomal machinery", "values": [
      {"measurement": "U1A binding to substrate and control RNA", "setting": "[3]; gel shift, 1 nM RNA, 10 nM U1A", "result": "high affinity"},
      {"measurement": "off-rate koff of U1A", "setting": "[3]; without NPH-II (and ATP)", "result": "~10^−2 min^−1"},
      {"measurement": "U1A dissociates from the substrate", "setting": "[3]; without NPH-II, within 20 minutes", "result": "roughly 15%"},
      {"measurement": "affinity of extended two-piece substrate for U1A binding", "setting": "[4]", "result": "subnanomolar affinity"}
    ]},
    {"molecule": "blunt-end U1A binding site control duplex", "values": [
      {"measurement": "koff", "setting": "[2]; off-rate similar to overhang substrate, not increased by NPH-II plus ATP", "result": 0.000167, "unit": "s⁻¹"}
    ]},
    {"molecule": "multi-piece substrates (nicked top strand)", "values": [
      {"measurement": "activity", "setting": "[1]; both pieces displaced, 3.3±0.5, Mg2+, trap RNA, 3'-to-5' directionality", "result": 3.3, "unit": "min⁻¹"}
    ]},
    {"molecule": "B1", "values": [
      {"measurement": "unwinding step size", "setting": "[5]", "result": "4-5 bp"}
    ]},
    {"molecule": "GGAGAACCAUUGCACUCCGGUUCUUC (ssRNA)", "note": "[U1A trap (U1 snRNA hairpin)]", "values": [
      {"measurement": "binding result", "setting": "[6]", "result": "binds"}
    ]}
  ]
}
